In patent US20250011363A1, “OPTIMIZED SHORTENED PEPTIDE THAT BINDS TO ACETYLCHOLINE RECEPTOR, AND USE THEREOF” (SKINMED CO., LTD., priority 2021, published 2025) one finds Binding affinity (relative to RRGVRR) (value relative to the RRGVRR sequence) and Binding affinity (relative to RRQRR) (relative value to the RRQRR sequence) data, which are given here for 61 molecules.

The test addresses acetylcholine receptor. Briefly: SPR, AchR immobilized on chip. (In general: Surface plasmon resonance follows binding to a sensor surface in real time, without labels.)

The molecule RRGVRRT showed a Binding affinity (relative to RRGVRR) (value relative to the RRGVRR sequence) of 113.
As to LRRQRR, the Binding affinity (relative to RRQRR) (relative value to the RRQRR sequence) was determined as 144.
Same read-out and setting: to KRRQRR belongs 173.
On the same count and under the same terms, the figure for RRQRRQ is 101.
FRRGVRR: the Binding affinity (relative to RRGVRR) (value relative to the RRGVRR sequence) was determined as 139.
Molecule RRQRRR displayed a Binding affinity (relative to RRQRR) (relative value to the RRQRR sequence) of 192.
In turn, TRRQRR returned a Binding affinity (relative to RRQRR) (relative value to the RRQRR sequence) of 103.
Take RRGVRRP: the Binding affinity (relative to RRGVRR) (value relative to the RRGVRR sequence) is 142.
On the same count and under the same terms, to GRRGVRR belongs 137; to PRRGVRR, 138.
HRRQRR: the Binding affinity (relative to RRQRR) (relative value to the RRQRR sequence) was determined as 164.
Same read-out and setting: to RRQRRP belongs 137; to RRQRRF, 132; to YRRQRR, 130.
The molecule WRRGVRR yielded a Binding affinity (relative to RRGVRR) (value relative to the RRGVRR sequence) of 134.
Molecule YRRGVRR displayed a Binding affinity (relative to RRGVRR) (value relative to the RRGVRR sequence) of 145.
Still for that read-out and setting: to RRGVRRI belongs 138.
Turning to RRQRRD, the Binding affinity (relative to RRQRR) (relative value to the RRQRR sequence) came out at 65.
PRRQRR showed a Binding affinity (relative to RRQRR) (relative value to the RRQRR sequence) of 133.
On the same count and under the same terms, to RRQRRH belongs 158.
RRGVRRC had a Binding affinity (relative to RRGVRR) (value relative to the RRGVRR sequence) of 131.
The same measure, in the same setting: to LRRGVRR belongs 149.
RRQRRM registered a Binding affinity (relative to RRQRR) (relative value to the RRQRR sequence) of 122.
Regarding IRRGVRR, the Binding affinity (relative to RRGVRR) (value relative to the RRGVRR sequence) amounted to 126.
RRQRRC showed a Binding affinity (relative to RRQRR) (relative value to the RRQRR sequence) of 126.
On the same count and under the same terms, the figure for RRQRRL is 141.
Still for that read-out and setting: the figure for IRRQRR is 121; for MRRQRR it is 119.
RRGVRRS: the Binding affinity (relative to RRGVRR) (value relative to the RRGVRR sequence) was found to be 118.
Molecule FRRQRR showed a Binding affinity (relative to RRQRR) (relative value to the RRQRR sequence) of 143.
Regarding VRRGVRR, the Binding affinity (relative to RRGVRR) (value relative to the RRGVRR sequence) came to 140.
The same measure, in the same setting: to RRGVRRA belongs 118.
The molecule RRQRRS yielded a Binding affinity (relative to RRQRR) (relative value to the RRQRR sequence) of 113.
As to NRRGVRR, the Binding affinity (relative to RRGVRR) (value relative to the RRGVRR sequence) turned out to be 109.
Molecule SRRGVRR displayed a Binding affinity (relative to RRGVRR) (value relative to the RRGVRR sequence) of 117.
Molecule WRRQRR returned a Binding affinity (relative to RRQRR) (relative value to the RRQRR sequence) of 138.
On to CRRGVRR, for which the Binding affinity (relative to RRGVRR) (value relative to the RRGVRR sequence) was 128.
Take DRRQRR: the Binding affinity (relative to RRQRR) (relative value to the RRQRR sequence) was 163.
For the molecule RRGVRRM, the Binding affinity (relative to RRGVRR) (value relative to the RRGVRR sequence) turned out to be 127.
RRQRRK gave a Binding affinity (relative to RRQRR) (relative value to the RRQRR sequence) of 175.
The molecule RRGVRRG showed a Binding affinity (relative to RRGVRR) (value relative to the RRGVRR sequence) of 105.
As for RRQRRW, the Binding affinity (relative to RRQRR) (relative value to the RRQRR sequence) was 129.
On to TRRGVRR, for which the Binding affinity (relative to RRGVRR) (value relative to the RRGVRR sequence) is 105.
The molecule RRQRRT came in with a Binding affinity (relative to RRQRR) (relative value to the RRQRR sequence) of 117.
Consider NRRQRR, for which the Binding affinity (relative to RRQRR) (relative value to the RRQRR sequence) was 113.
In turn, RRGVRRY yielded a Binding affinity (relative to RRGVRR) (value relative to the RRGVRR sequence) of 101.
In turn, ARRGVRR registered a Binding affinity (relative to RRGVRR) (value relative to the RRGVRR sequence) of 134.
As to QRRQRR, the Binding affinity (relative to RRQRR) (relative value to the RRQRR sequence) was 105.
Molecule RRGVRRW yielded a Binding affinity (relative to RRGVRR) (value relative to the RRGVRR sequence) of 134.
The molecule RRGVRRN displayed a Binding affinity (relative to RRGVRR) (value relative to the RRGVRR sequence) of 105.
Same read-out and setting: to RRGVRRV belongs 149.
Take SRRQRR: the Binding affinity (relative to RRQRR) (relative value to the RRQRR sequence) came to 121.
RRRQRR: the Binding affinity (relative to RRQRR) (relative value to the RRQRR sequence) was 189.
RRGVRRF displayed a Binding affinity (relative to RRGVRR) (value relative to the RRGVRR sequence) of 137.
As for RRQRRY, the Binding affinity (relative to RRQRR) (relative value to the RRQRR sequence) is 105.
Same read-out and setting: the figure for RRQRRN is 109; for RRQRRI it is 133; for ERRQRR it is 147.
Turning to MRRGVRR, the Binding affinity (relative to RRGVRR) (value relative to the RRGVRR sequence) amounted to 124.
Regarding RRQRRE, the Binding affinity (relative to RRQRR) (relative value to the RRQRR sequence) was 37.
Take RRGVRRL: the Binding affinity (relative to RRGVRR) (value relative to the RRGVRR sequence) worked out at 146.
